Like-named read-outs stand apart in the source and are kept apart here. *1 amine or outer side, *2 acyl side, *3 side chain or, on linkers, in order; H or OH if unused. Where no end group is shown, it is not given here. Side-chain parts run from the residue outwards. [ ]: non-standard residue; d: D form. The star is where a group is joined. γGlu = O=C(O)[C@H](CCC(=O)[*:2])N[*:1]; Palmitoyl = CCCCCCCCCCCCCCCC(=O)*; Suc = O=C(CCC(=O)[*:2])[*:1]; Aib = CC(C)(N)C(=O)O; βAla = NCCC(=O)O

What all share (assay): cell-based or functional assay
For test [1], the target named is T1, glucagon receptor (UniProt P47871 26-477, limits assumed).
In test [2] the target is T2, GIP receptor (UniProt P48546 22-466, limits assumed).
T2 sequence (looked up): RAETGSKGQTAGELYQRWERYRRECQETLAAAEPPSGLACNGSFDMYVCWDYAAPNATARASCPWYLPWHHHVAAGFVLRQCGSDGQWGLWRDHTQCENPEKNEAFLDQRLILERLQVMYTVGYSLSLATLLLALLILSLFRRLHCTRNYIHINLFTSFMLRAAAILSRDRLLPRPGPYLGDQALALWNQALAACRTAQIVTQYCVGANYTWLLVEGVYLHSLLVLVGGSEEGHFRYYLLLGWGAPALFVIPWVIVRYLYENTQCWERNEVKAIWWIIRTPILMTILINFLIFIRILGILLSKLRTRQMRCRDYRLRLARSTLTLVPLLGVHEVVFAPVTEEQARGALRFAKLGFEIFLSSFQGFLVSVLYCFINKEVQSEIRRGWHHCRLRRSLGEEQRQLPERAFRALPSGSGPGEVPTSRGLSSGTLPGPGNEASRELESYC

For test [3], the target named is T3, GLP-1 receptor (UniProt P43220 24-463, limits assumed).
Target sequence in this assay (P43220 24-463 limits assumed): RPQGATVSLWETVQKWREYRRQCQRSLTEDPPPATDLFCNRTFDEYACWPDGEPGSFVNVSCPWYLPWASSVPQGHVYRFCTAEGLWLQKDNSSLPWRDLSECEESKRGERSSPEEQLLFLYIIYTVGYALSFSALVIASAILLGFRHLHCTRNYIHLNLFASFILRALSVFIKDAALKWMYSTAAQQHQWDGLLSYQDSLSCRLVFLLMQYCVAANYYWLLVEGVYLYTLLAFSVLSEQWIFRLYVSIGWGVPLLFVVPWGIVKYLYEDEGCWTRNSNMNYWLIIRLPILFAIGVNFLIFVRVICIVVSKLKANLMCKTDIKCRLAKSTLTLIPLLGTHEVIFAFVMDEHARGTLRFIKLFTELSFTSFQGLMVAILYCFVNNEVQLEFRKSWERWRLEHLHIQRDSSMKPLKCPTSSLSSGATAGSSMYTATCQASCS
In test [4] the target is T1, glucagon receptor. This is another data set of the same source.
The target in test [5] is T2, GIP receptor. The source holds these as a separate data set.
For test [6], the target named is T3, GLP-1 receptor. The source holds these as a separate data set.
Test [7] concerns the target T1, glucagon receptor. The source holds these as a separate data set.
Test [8] concerns the target T2, GIP receptor. The source holds these as a separate data set.
For test [9], the target named is T3, GLP-1 receptor. The source holds these as a separate data set.
Test [10] addresses T1, glucagon receptor. The source holds these as a separate data set.
Test [11] concerns the target T2, GIP receptor. The source holds these as a separate data set.
In test [12] the target is T3, GLP-1 receptor. This is another data set of the same source.

T1 sequence (P47871 26-477 limits assumed): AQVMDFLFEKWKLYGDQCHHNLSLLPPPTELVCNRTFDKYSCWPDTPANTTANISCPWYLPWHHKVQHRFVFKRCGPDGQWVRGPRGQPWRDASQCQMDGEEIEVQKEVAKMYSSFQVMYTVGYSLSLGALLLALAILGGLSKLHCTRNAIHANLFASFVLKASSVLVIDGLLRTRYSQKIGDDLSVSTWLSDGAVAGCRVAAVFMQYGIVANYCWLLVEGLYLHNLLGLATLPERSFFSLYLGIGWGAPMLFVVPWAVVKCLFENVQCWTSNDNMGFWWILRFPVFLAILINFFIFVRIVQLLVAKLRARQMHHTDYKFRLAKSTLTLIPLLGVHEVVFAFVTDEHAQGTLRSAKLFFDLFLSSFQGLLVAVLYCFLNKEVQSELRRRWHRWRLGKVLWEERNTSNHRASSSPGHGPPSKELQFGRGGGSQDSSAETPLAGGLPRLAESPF

On to Y[Aib]EGTFTSDYSIYLDKQAA[Aib]EFVNWLLAGGPSSGAPPPSK([βAla-Suc-Palmitoyl])G-NH2 [peptide of SEQ ID NO: 141], for which the “EC50 (cAMP reporter)” value was determined as 58 pM in the test with glucagon receptor [1], 2 pM with GIP receptor [2] and 1 pM with GLP-1 receptor [3].
Turning to H[Aib]QGTFTSDYSKYLDERAAQDFVQWLLDAGPSSGAPPPSK([γGlu-γGlu-Palmitoyl])G-NH2 [peptide of SEQ ID NO: 204], the “EC50 (cAMP reporter)” value with glucagon receptor [4] turned out to be 3 pM; with GIP receptor [5] it was 69 pM; with GLP-1 receptor [6] it was 1 pM.
For the molecule YXEGTFTSDXSIYLDKQAAXEFVNWLLAGGPSSGAPPPS (aib at 2 and 20; 4-aminoPhe at 10 acylated F(4-aminoγEγEC16); NH2) [peptide of SEQ ID NO: 143], the entries for the “EC50 (cAMP reporter)” value with glucagon receptor [1], with GIP receptor [2] and with GLP-1 receptor [3] were 165 pM, 3 pM and 2 pM, respectively.
As to YXEGTFTSDXSIYLDKQAAXEFVNWLLAGGPSSGAPPPS (aib at 2 and 20; 4-aminoPhe at 10, F(4amino-succinoylC16); NH2) [peptide of SEQ ID NO: 144], the “EC50 (cAMP reporter)” value with glucagon receptor [1] was greater than 500 pM; in the test with GIP receptor [2], 13 pM; with GLP-1 receptor [3], 4 pM.

B1: Analog No. 37: Aib2, K10acyl, E16, Aib20, E21, L27, D28 (SEQ ID NO: 31) (peptide)
peptide: H[Aib]QGTFTSDK([γGlu-Palmitoyl])SKYLDERRA[Aib]EFVQWLLDT-NH2
modifications: N-terminus assumed
SMILES: CCCCCCCCCCCCCCCC(=O)N[C@@H](CCC(=O)NCCCC[C@H](NC(=O)[C@H](CC(=O)O)NC(=O)[C@H](CO)NC(=O)[C@@H](NC(=O)[C@H](Cc1ccccc1)NC(=O)[C@@H](NC(=O)CNC(=O)[C@H](CCC(N)=O)NC(=O)C(C)(C)NC(=O)[C@@H](N)Cc1c[nH]cn1)[C@@H](C)O)[C@@H](C)O)C(=O)N[C@@H](CO)C(=O)N[C@@H](CCCCN)C(=O)N[C@@H](Cc1ccc(O)cc1)C(=O)N[C@@H](CC(C)C)C(=O)N[C@@H](CC(=O)O)C(=O)N[C@@H](CCC(=O)O)C(=O)N[C@@H](CCCNC(=N)N)C(=O)N[C@@H](CCCNC(=N)N)C(=O)N[C@@H](C)C(=O)NC(C)(C)C(=O)N[C@@H](CCC(=O)O)C(=O)N[C@@H](Cc1ccccc1)C(=O)N[C@H](C(=O)N[C@@H](CCC(N)=O)C(=O)N[C@@H](Cc1c[nH]c2ccccc12)C(=O)N[C@@H](CC(C)C)C(=O)N[C@@H](CC(C)C)C(=O)N[C@@H](CC(=O)O)C(=O)N[C@H](C(N)=O)[C@@H](C)O)C(C)C)C(=O)O
Regarding B1, the “EC50 (cAMP reporter)” value with glucagon receptor [7] was 8 pM; with GIP receptor [8], 8 pM; with GLP-1 receptor [9], 4.4 pM; in the test with glucagon receptor [10], 8 pM; with GIP receptor [11], 8 pM; with GLP-1 receptor [12], 4.4 pM.
Y[Aib]EGTFTSDYSIYLDKQAA[Aib]EFVNWLLAGGPSSGAPPPSK([Suc-C18])G-NH2 [peptide of SEQ ID NO: 142]: the “EC50 (cAMP reporter)” value in the test with glucagon receptor [1] was 121 pM; with GIP receptor [2] it was 1 pM; with GLP-1 receptor [3], 4 pM.
For Y[Aib]EGTFTSDYSIYLDKQAA[Aib]EFVNWLLAGGPSSGAPPPSK(Palmitoyl)G-NH2 [peptide of SEQ ID NO: 139], the “EC50 (cAMP reporter)” value was 203 pM in the test with glucagon receptor [1], 1 pM in the test with GIP receptor [2] and 5 pM in the test with GLP-1 receptor [3].

B2: peptide of SEQ ID NO: 205 (peptide)
peptide: H[Aib]QGTFTSDK([γGlu-Palmitoyl])SKYLDERAAQDFVQWLLDGGPSSGAPPPSG-NH2
modifications: N-terminus assumed
SMILES: CCCCCCCCCCCCCCCC(=O)N[C@@H](CCC(=O)NCCCC[C@H](NC(=O)[C@H](CC(=O)O)NC(=O)[C@H](CO)NC(=O)[C@@H](NC(=O)[C@H](Cc1ccccc1)NC(=O)[C@@H](NC(=O)CNC(=O)[C@H](CCC(N)=O)NC(=O)C(C)(C)NC(=O)[C@@H](N)Cc1c[nH]cn1)[C@@H](C)O)[C@@H](C)O)C(=O)N[C@@H](CO)C(=O)N[C@@H](CCCCN)C(=O)N[C@@H](Cc1ccc(O)cc1)C(=O)N[C@@H](CC(C)C)C(=O)N[C@@H](CC(=O)O)C(=O)N[C@@H](CCC(=O)O)C(=O)N[C@@H](CCCNC(=N)N)C(=O)N[C@@H](C)C(=O)N[C@@H](C)C(=O)N[C@@H](CCC(N)=O)C(=O)N[C@@H](CC(=O)O)C(=O)N[C@@H](Cc1ccccc1)C(=O)N[C@H](C(=O)N[C@@H](CCC(N)=O)C(=O)N[C@@H](Cc1c[nH]c2ccccc12)C(=O)N[C@@H](CC(C)C)C(=O)N[C@@H](CC(C)C)C(=O)N[C@@H](CC(=O)O)C(=O)NCC(=O)NCC(=O)N1CCC[C@H]1C(=O)N[C@@H](CO)C(=O)N[C@@H](CO)C(=O)NCC(=O)N[C@@H](C)C(=O)N1CCC[C@H]1C(=O)N1CCC[C@H]1C(=O)N1CCC[C@H]1C(=O)N[C@@H](CO)C(=O)NCC(N)=O)C(C)C)C(=O)O
With B2, the “EC50 (cAMP reporter)” value in the test with glucagon receptor [4] worked out at 5 pM; in the test with GIP receptor [5] it was 4 pM; in the test with GLP-1 receptor [6], 2 pM.
Taken in the same sequence, the figures for H[Aib]QGTFTSDYSKYLDERAAQDFVQWLLAGGPSSGAPPPSK([γGlu-γGlu-Palmitoyl])G-NH2 [peptide of SEQ ID NO: 203] were 3 pM, 7 pM and 1 pM.
For the molecule Y[Aib]EGTFTSDYSIYLDKQAA[Aib]EFVNWLLAGGPSSGAPPPSK([Suc-Palmitoyl])G-NH2 [peptide of SEQ ID NO: 140], the figures for the “EC50 (cAMP reporter)” value with glucagon receptor [1], with GIP receptor [2] and in the test with GLP-1 receptor [3] were 77 pM, 1 pM and 1 pM, respectively.

B3: peptide of SEQ ID NO: 92 (peptide)
peptide: Y[Aib]QGTFTSDK([γGlu-γGlu-Palmitoyl])SIYLDKQAA[Aib]EFVNWLLDT-NH2
modifications: N-terminus assumed
SMILES: CCCCCCCCCCCCCCCC(=O)N[C@@H](CCC(=O)N[C@@H](CCC(=O)NCCCC[C@H](NC(=O)[C@H](CC(=O)O)NC(=O)[C@H](CO)NC(=O)[C@@H](NC(=O)[C@H](Cc1ccccc1)NC(=O)[C@@H](NC(=O)CNC(=O)[C@H](CCC(N)=O)NC(=O)C(C)(C)NC(=O)[C@@H](N)Cc1ccc(O)cc1)[C@@H](C)O)[C@@H](C)O)C(=O)N[C@@H](CO)C(=O)N[C@H](C(=O)N[C@@H](Cc1ccc(O)cc1)C(=O)N[C@@H](CC(C)C)C(=O)N[C@@H](CC(=O)O)C(=O)N[C@@H](CCCCN)C(=O)N[C@@H](CCC(N)=O)C(=O)N[C@@H](C)C(=O)N[C@@H](C)C(=O)NC(C)(C)C(=O)N[C@@H](CCC(=O)O)C(=O)N[C@@H](Cc1ccccc1)C(=O)N[C@H](C(=O)N[C@@H](CC(N)=O)C(=O)N[C@@H](Cc1c[nH]c2ccccc12)C(=O)N[C@@H](CC(C)C)C(=O)N[C@@H](CC(C)C)C(=O)N[C@@H](CC(=O)O)C(=O)N[C@H](C(N)=O)[C@@H](C)O)C(C)C)[C@@H](C)CC)C(=O)O)C(=O)O
As to B3, the entries for the “EC50 (cAMP reporter)” value with glucagon receptor [10], with GIP receptor [11] and with GLP-1 receptor [12] were 10.5 pM, 21 pM and 3.1 pM, respectively.

The values are drawn from patent US20120238493A1 (INDIANA UNIVERSITY RESEARCH AND TECHNOLOGY, published 2012).
